What was measured:
[1] = biological target: cell-surface HLA-A2 on Hmy2.C1R-A2 target cells with HTLV-1 TAX 11-19 peptide (human; HTLV-1), A*02:0; experiment: cell-based or functional assay
[2] = biological target: cell-surface HLA-A3 on Hmy2.C1R-A3 transfectants with pn2a.A3 peptide (human)
[3] = biological target: cell-surface HLA-A2 on Hmy2.C1R-A2 transfectants with HIV gag 77-85 peptide (human; HIV), A*02:0
[4] = biological target: cell-surface HLA-A3 on Hmy2.C1R-A3 transfectants with pn2a.A3 peptide (human); remark: listed apart in the source
[5] = biological target: cell-surface HLA-A1 on Hmy2.C1R-A1 transfectants with ornithine decarboxylase 309-317 (OD 309) peptide (human); experiment: competition with 2.5 µM myc-hβ2m on Hmy2.C1R-A1 cells with OD 309 peptide, 9E10 anti-myc, flow cytometry
[6] = biological target: cell-surface HLA-A1 on Hmy2.C1R-A1 transfectants with ornithine decarboxylase 309-317 (OD 309) peptide (human); experiment: HLA stabilization assay, acid-stripped Hmy2.C1R-A1 cells with OD 309 peptide and BB7.5 mAb, flow cytometry

wild-type human β2-microglobulin (hβ2m), recombinant (from UniProt P61769 21-119)
hβ2m concentration giving maximal lysis by the TAX-specific CTL clone [1]: 8 µM

hβ2m S55V (human β2-microglobulin with valine at position 55) (from UniProt P61769 21-119)
fold better stabilization than wild-type hβ2m at a molar level [2]: 3 fold | fold better inhibition of myc-hβ2m binding than wild-type hβ2m at a molar level [3]: 2.5 fold | fold better inhibition of myc-hβ2m binding than wild-type hβ2m at a molar level [4]: 2.5 fold | enhancement of target cell lysis, fold more effective at a molar level than wild-type hβ2m [1]: 4 fold | fold better inhibition of myc-hβ2m binding than wild-type hβ2m at a molar level [5]: 2.5 fold | fold better stabilization than wild-type hβ2m at a molar level [6]: 2 fold

Reference: patent publication EP1086224B1
